Source: article PMC8916728 (2022)

T1: NRP2 a2b1b2 (human neuropilin 2 residues 145 to 595, monomeric IgG1 Fc tag) (human, UniProt O60462 145-595)
T1 chain: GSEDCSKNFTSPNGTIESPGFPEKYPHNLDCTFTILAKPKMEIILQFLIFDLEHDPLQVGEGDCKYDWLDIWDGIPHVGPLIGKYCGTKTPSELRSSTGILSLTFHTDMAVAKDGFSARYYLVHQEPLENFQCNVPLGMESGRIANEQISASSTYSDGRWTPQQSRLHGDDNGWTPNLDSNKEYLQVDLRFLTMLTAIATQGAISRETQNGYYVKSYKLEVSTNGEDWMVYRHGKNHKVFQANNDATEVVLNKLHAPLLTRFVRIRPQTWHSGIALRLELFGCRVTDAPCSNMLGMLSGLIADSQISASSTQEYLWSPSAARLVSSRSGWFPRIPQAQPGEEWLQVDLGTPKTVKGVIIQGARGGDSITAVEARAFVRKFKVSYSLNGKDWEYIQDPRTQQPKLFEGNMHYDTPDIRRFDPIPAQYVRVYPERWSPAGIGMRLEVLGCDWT

T2: monoFc-tagged NRP2 (human neuropilin 2 a1a2b1b2, residues 23 to 595) (human, UniProt O60462 23-595)
T2 chain: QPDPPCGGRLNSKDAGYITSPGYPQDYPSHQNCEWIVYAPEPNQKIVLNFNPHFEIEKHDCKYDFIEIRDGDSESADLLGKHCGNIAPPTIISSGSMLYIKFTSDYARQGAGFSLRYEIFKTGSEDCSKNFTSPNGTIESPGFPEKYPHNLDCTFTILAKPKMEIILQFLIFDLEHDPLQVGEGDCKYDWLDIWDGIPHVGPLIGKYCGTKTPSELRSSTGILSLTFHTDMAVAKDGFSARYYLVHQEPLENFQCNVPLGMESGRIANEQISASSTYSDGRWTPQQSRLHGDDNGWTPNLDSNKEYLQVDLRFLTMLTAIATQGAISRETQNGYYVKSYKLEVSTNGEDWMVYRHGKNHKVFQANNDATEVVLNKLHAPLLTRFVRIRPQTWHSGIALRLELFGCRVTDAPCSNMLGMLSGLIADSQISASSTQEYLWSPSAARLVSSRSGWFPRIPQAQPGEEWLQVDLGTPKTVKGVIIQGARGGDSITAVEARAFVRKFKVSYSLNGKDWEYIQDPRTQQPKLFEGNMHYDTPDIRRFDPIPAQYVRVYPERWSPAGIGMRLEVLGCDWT

B1: soluble ectodomain of the HCMV Pentamer (strain Towne) (complex)
chain 1: RYGAEAISEPLDKAFHLLLNTYGRPIRFLRENTTQCTYNSSLRNSTVVRENAISFNFFQSYNQYYVFHMPRCLFAGPLAEQFLNQVDLTETLERYQQRLNTYALVSKDLASYRSFSQQLKAQDSLGEQPTTVPPPIDLSIPHVWMPPQTTPHGWTESHTTSGLHRPHFNQTCILFDGHDLLFSTVTPCLHQGFYLIDELRYVKITLTEDFFVVTVSIDDDTPMLLIFGHLPRVLFKAPYQRDNFILRQTEKHELLVLVKKDQLNRHSYLKDPDFLDAALDFNYLDLSALLRNSFHRYAVDVLKSGRCQMLDRRTVEMAFAYALALFAAARQEEAGAQVSVPRALDRQAALLQIQEFMITCLSQTPPRTTLLLYPTAVDLAKRALWTPNQITDITSLVRLVYILSKQNQQHLIPQWALRQIADFALKLHKTHLASFLSAFARQELYLMGSLVHSMLVHTTERREIFIVETGLCSLAELSHFTQLLAHPHHEYLSDLYTPCSSSGRRDHSLERLTRLFPDATVPTTVPAALSILSTMQPSTLETFPDLFCLPLGESFSALTVSEHVSYVVTNQYLIKGISYPVSTTVVGQSLIITQTDSQTKCELTRNMHTTHSITAALNISLENCAFCQSALLEYDDTQGVINIMYMHDSDDVLFALDPYNEVVVSSPRTHYLMLLKNGTVLEVTDVVVDATDSRL
chain 2: VAVSVAPTAAEKVPAECPELTRRCLLGEVFQGDKYESWLRPLVNVTRRDGPLSQLIRYRPVTPEAANSVLLDDAFLDTLALLYNNPDQLRALLTLLSSDTAPRWMTVMRGYSECGDGSPAVYTCVDDLCRGYDLTRLSYGRSIFTEHVLGFELVPPSLFNVVVAIRNEATRTNRAVRLPVSTAAAPEGITLFYGLYNAVKEFCLRHQLDPPLLRHLDKYYAGLPPELKQTRVNLPAHSRYGPQAVDAR
chain 3: RVPRVRAEECCEFINVNHPPERCYDFKMCNRFTVALRCPDGEVCYSPEKTAEIRGIVTTMTHSLTRQVVHNKLTSCNYNPLYLEADGRIRCGKVNDKAQYLLGAAGSVPYRWINLEYDKITRIVGLDQYLESVKKHKRLDVCRAKMGYMLQ
chain 4: SPWSTLTANQNPSPPWSKLTYSKPHDAATFYCPFLYPSPPRSPLQFSGFQQVSTGPECRNETLYLLYNREGQTLVERSSTWVKKVIWYLSGRNQTILQRMPQTASKPSDGNVQISVEDAKIFGAHMVPKQTKLLRFVVNDGTRYQMCVMKLESWAHVFRDYSVSFQVRLTFTEANNQTYTFCTHPNLIV
chain 5: QCQRETAEKNDYYRVPHYWDACSRALPDQTRYKYVEQLVDLTLNYHYDASHGLDNFDVLKRINVTEVSLLISDFRRQNRRGGTNKRTTFNAAGSLAPHARSLEFSVRLFAN

Assays:
[1] = target: B1; experiment: SPR
[2] = target: B1; experiment: SPR
[3] = target: T1, NRP2 a2b1b2 (human neuropilin 2 …); experiment: BLI; 2 mM Ca2+
[4] = target: T2, monoFc-tagged NRP2 (human neuropilin 2 …); experiment: BLI; 2 mM Ca2+
[5] = target: 1-32–captured Pentamer (HCMV Pentamer bound by 1-32 IgG) (human cytomegalovirus (strain Towne) | …, UniProt P17176 24-718); experiment: BLI; Pentamer captured by 1-32 IgG

Binder	Kd [1]	further results
Fab 1-32 (Fab, V domains shown) VH: QVKLVESGGGVVQPGRSLRLSCAGSGFAFDNYAMHWVRQAPGKGLEWVAVISLEGRNKYYAGPAKGRFSISRDNSRNTVHLQMNSLRPEDTAVYFCARDMRYYYDSNGHYRNRYGMDVWGQGTTVIVSS VL: DIQMTQSPSSLSASVGDSVTITCQASQDINQFVSWYQQKPGKPPKLLIYDASNLESGVPSRFSGSGSGTHFTFTISSLQPDDIATYYCQQYENLFTFGPGTKVDIK	2.82 nM	koff [2]: 0.000264 s⁻¹
Fab 2-18 (Fab, V domains shown) VH: EVQLVQSGGGLVQPGGSLRVSCAASGFSFSDHDMDWVRQAPGKGFEWVGRSRNKDYSSTTEYAASVRGRFTISRHTSEDLLYLELNTVKTEDTAVYFCARGPHHSDRSGYYGGTFDIWGQGTMVTVSS VL: DIQMTQSPSSVSASVGDRVIITCRASQGISSWLAWYQQKPGRAPRLLIYDASTLESGVPSRFSGRGSGTEFTLTINSLQPEDFATYYCQQGNMFPLTFGGGTKVEIK	0.0493 nM	–
B1	–	koff [3]: 0.00104 s⁻¹; koff [4]: 0.000271 s⁻¹
Fab 2-25 (Fab, V domains shown) VH: QVQLVESGAEVKKPGASVKVSCKASGYTFTNYAIHWVRQAPGQRLEWMGWINAGRGNTKYSQKFQGRVTITRDTSASTAYMELSSLRSEDAAVYFCARDESTGDYYYYMDVWGKGTTVTVSS VL: SYELTQPPSVSVSPGQTASITCSGDRLDDKYASWYQQKAGQSPVLVIYQDNKRPSGIPERFSGSNSGNTATLTISGTQAMDEADYYCQAWDSDTYVFGTGTKVTVL	1.08 nM	–
Fab 1-103 (Fab, V domains shown) VH: QLQLQESGPGLVKPSETLSLTCSVSGDAISGSNYYWGWIRQPPGKGLQWIGSIYHTGSTFYNPSFSSRVTLSVDTSKNQFSLKLISVNAADTAVYYCARRIRGYSGTYDWGQGTLVTVSS VL: DIQLTQSPSFLSASVGDRVTITCRASQDISSYVAWYQQKPGNAPKLLISSASTLPSGVPSRFSGSRSGTDFTLTISSLQPEDFATYYCQQLNNFGPGTTVDIK	3.11 nM	–
untagged NRP2 (receptor) RGQPDPPCGGRLNSKDAGYITSPGYPQDYPSHQNCEWIVYAPEPNQKIVLNFNPHFEIEKHDCKYDFIEIRDGDSESADLLGKHCGNIAPPTIISSGSMLYIKFTSDYARQGAGFSLRYEIFKTGSEDCSKNFTSPNGTIESPGFPEKYPHNLDCTFTILAKPKMEIILQFLIFDLEHDPLQVGEGDCKYDWLDIWDGIPHVGPLIGKYCGTKTPSELRSSTGILSLTFHTDMAVAKDGFSARYYLVHQEPLENFQCNVPLGMESGRIANEQISASSTYSDGRWTPQQSRLHGDDNGWTPNLDSNKEYLQVDLRFLTMLTAIATQGAISRETQNGYYVKSYKLEVSTNGEDWMVYRHGKNHKVFQANNDATEVVLNKLHAPLLTRFVRIRPQTWHSGIALRLELFGCRVTDAPCSNMLGMLSGLIADSQISASSTQEYLWSPSAARLVSSRSGWFPRIPQAQPGEEWLQVDLGTPKTVKGVIIQGARGGDSITAVEARAFVRKFKVSYSLNGKDWEYIQDPRTQQPKLFEGNMHYDTPDIRRFDPIPAQYVRVYPERWSPAGIGMRLEVLGCDWTDSKPTVETLGPTVKSEETTTPYPTEEEATECGENCSFEDDKDLQLPSGFNCNFDFLEEPCGWMYDHAKWLRTTWASSSSPNDRTFPDDRNFLRLQSDSQREGQYARLISPPVHLPRSPVCMEFQYQATGGRGVALQVVREASQESKLLWVIREDQGGEWKHGRIILPSYDMEYQIVFEGVIGKGRSGEIAIDDIRISTDVPLENCMEPISAFAGENFKVDIPEIHEREGYEDEIDDEYEVDWSNSSSATSGSGAPSTDKEKSWLYTLDPILITIIAMSSLGVLLGATCAGLLLYCTCSYSGLSSRSCTTLENYNFELYDGLKHKVKMNHQKCCSEA	–	koff [5]: 0.00177 s⁻¹
